Reference: the supplement of paper PMC5998384

Legend:
[1] = system: HeLa Kyoto; assay: solubility in G1/S (NP-40 vs SDS abundance) (log2 ratio); higher = more soluble; conditions: cell cycle stage: G1/S
[2] = system: HeLa Kyoto; assay: melting temperature (median over replicates), in situ; higher = more thermally stable
[3] = system: HeLa Kyoto; assay: solubility change mitosis vs G1/S (difference of NP-40 vs SDS log2 ratios) (log2 ratio difference); higher = more soluble in mitosis
[4] = system: HeLa Kyoto; assay: thermal stability score vs G1/S (z-score of summed log2 fold changes over temperatures); higher = more thermally stable than in G1/S
[5] = cell cycle stage: early G1 (4.5 h after nocodazole release)
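Throughout, for melting temperature (median over replicates), in situ: HeLa Kyoto cells synchronized by double thymidine or nocodazole block, proteins quantified by TMT10plex mass spectrometry, three independent biological replicates.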
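Throughout, for solubility change mitosis vs G1/S (difference of NP-40 vs SDS log2 ratios): synchronized HeLa Kyoto cells (double thymidine block for G1/S, nocodazole release for mitosis), protein amounts in NP-40 versus SDS lysates quantified by mass spectrometry, three biological replicates.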
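Throughout, for solubility in G1/S (NP-40 vs SDS abundance): HeLa Kyoto cells arrested at G1/S by double thymidine block, proteins quantified by TMT10plex mass spectrometry in mild NP-40 versus SDS extracts, three biological replicates.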
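Throughout, for thermal stability score vs G1/S (z-score of summed log2 fold changes over temperatures): synchronized HeLa Kyoto cells, proteins quantified by TMT10plex mass spectrometry, three biological replicates, mitosis taken 0.5 h after nocodazole release, G1/S directly after double thymidine block.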

Sequence | solubility in G1/S (log2) [1] | melting temperature ([2]; cell cycle stage: G1/S) [°C] | melting temperature ([2]; cell cycle stage: mitosis) [°C] | solubility change mitosis (log2) [3] | thermal stability score [4, 5] | thermal stability score ([4]; cell cycle stage: mitosis)
MQRLQVVLGHLRGPADSGWMPQAAPCLSGAPQASAADVVVVHGRRTAICRAGRGGFKDTTPDELLSAVMTAVLKDVNLRPEQLGDICVGNVLQPGAGAIMARIAQFLSDIPETVPLSTVNRQCSSGLQAVASIAGGIRNGSYDIGMACGVESMSLADRGNPGNITSRLMEKEKARDCLIPMGITSENVAERFGISREKQDTFALASQQKAARAQSKGCFQAEIVPVTTTVHDDKGTKRSITVTQDEGIRPSTTMEGLAKLKPAFKKDGSTTAGNSSQVSDGAAAILLARRSKAEELGLPILGVLRSYAVVGVPPDIMGIGPAYAIPVALQKAGLTVSDVDIFEINEAFASQAAYCVEKLRLPPEKVNPLGGAVALGHPLGCTGARQVITLLNELKRRGKRAYGVVSMCIGTGMGAAAVFEYPGN [ACAA1] | 0.126 | 55.1 | 55.3 | -0.102 | 0.354 | -0.509
MQRRGALFGMPGGSGGRKMAAGDIGELLVPHMPTIRVPRSGDRVYKNECAFSYDSPNSEGGLYVCMNTFLAFGREHVERHFRKTGQSVYMHLKRHVREKVRGASGGALPKRRNSKIFLDLDTDDDLNSDDYEYEDEAKLVIFPDHYEIALPNIEELPALVTIACDAVLSSKSPYRKQDPDTWENELPVSKYANNLTQLDNGVRIPPSGWKCARCDLRENLWLNLTDGSVLCGKWFFDSSGGNGHALEHYRDMGYPLAVKLGTITPDGADVYSFQEEEPVLDPHLAKHLAHFGIDMLHMHGTENGLQDNDIKLRVSEWEVIQESGTKLKPMYGPGYTGLKNLGNSCYLSSVMQAIFSIPEFQRAYVGNLPRIFDYSPLDPTQDFNTQMTKLGHGLLSGQYSKPPVKSELIEQVMKEEHKPQQNGISPRMFKAFVSKSHPEFSSNRQQDAQEFFLHLVNLVERNRIGSENPSDVFRFLVEERIQCCQTRKVRYTERVDYLMQLPVAMEAATNKDELIAYELTRREAEANRRPLPELVRAKIPFSACLQAFSEPENVDDFWSSALQAKSAGVKTSRFASFPEYLVVQIKKFTFGLDWVPKKFDVSIDMPDLLDINHLRARGLQPGEEELPDISPPIVIPDDSKDRLMNQLIDPSDIDESSVMQLAEMGFPLEACRKAVYFTGNMGAEVAFNWIIVHMEEPDFAEPLTMPGYGGAASAGASVFGASGLDNQPPEEIVAIITSMGFQRNQAIQALRATNNNLERALDWIFSHPEFEEDSDFVIEMENNANANIISEAKPEGPRVKDGSGTYELFAFISHMGTSTMSGHYICHIKKEGRWVIYNDHKVCASERPPKDLGYMYFYRRIPS [USP13] | 0.0742 | 50 | 50.2 | -0.0974 | 0.321 | 0.746
MQSWSRVYCSLAKRGHFNRISHGLQGLSAVPLRTYADQPIDADVTVIGSGPGGYVAAIKAAQLGFKTVCIEKNETLGGTCLNVGCIPSKALLNNSHYYHMAHGKDFASRGIEMSEVRLNLDKMMEQKSTAVKALTGGIAHLFKQNKVVHVNGYGKITGKNQVTATKADGGTQVIDTKNILIATGSEVTPFPGITIDEDTIVSSTGALSLKKVPEKMVVIGAGVIGVELGSVWQRLGADVTAVEFLGHVGGVGIDMEISKNFQRILQKQGFKFKLNTKVTGATKKSDGKIDVSIEAASGGKAEVITCDVLLVCIGRRPFTKNLGLEELGIELDPRGRIPVNTRFQTKIPNIYAIGDVVAGPMLAHKAEDEGIICVEGMAGGAVHIDYNCVPSVIYTHPEVAWVGKSEEQLKEEGIEYKVGKFPFAANSRAKTNADTDGMVKILGQKSTDRVLGAHILGPGAGEMVNEAALALEYGASCEDIARVCHAHPTLSEAFREANLAASFGKSINF [DLD] | -0.00434 | 58.6 | 56.8 | -0.0404 | -0.545 | -2.94
MQTPEVPAERSPRRRSISGTSTSEKPNSMDTANTSPFKVPGFFSKRLKGSIKRTKSQSKLDRNTSFRLPSLRSTDDRSRGLPKLKESRSHESLLSPCSTVECLDLGRGEPVSVKPLHSSILGQDFCFEVTYLSGSKCFSCNSASERDKWMENLRRTVQPNKDNCRRAENVLRLWIIEAKDLAPKKKYFCELCLDDTLFARTTSKTKADNIFWGEHFEFFSLPPLHSITVHIYKDVEKKKKKDKNNYVGLVNIPTASVTGRQFVEKWYPVSTPTPNKGKTGGPSIRIKSRFQTITILPMEQYKEFAEFVTSNYTMLCSVLEPVISVRNKEELACALVHILQSTGRAKDFLTDLVMSEVDRCGEHDVLIFRENTIATKSIEEYLKLVGQQYLHDALGEFIKALYESDENCEVDPSKCSSSELIDHQSNLKMCCELAFCKIINSYCVFPRELKEVFASWKQQCLNRGKQDISERLISASLFLRFLCPAIMSPSLFNLMQEYPDDRTSRTLTLIAKVIQNLANFAKFGNKEEYMAFMNDFLEHEWGGMKRFLLEISNPDTISNTPGFDGYIDLGRELSVLHSLLWEVVSQLDKGENSFLQATVAKLGPLPRVLADITKSLTNPTPIQQQLRRFTEHNSSPNVSGSLSSGLQKIFEDPTDSDLHKLKSPSQDNTDSYFRGKTLLLVQQASSQSMTYSEKDERESSLPNGRSVSLMDLQDTHAAQVEHASVMLDVPIRLTGSQLSITQVASIKQLRETQSTPQSAPQVRRPLHPALNQPGGLQPLSFQNPVYHLNNPIPAMPKASIDSSLENLSTASSRSQSNSEDFKLSGPSNSSMEDFTKRSTQSEDFSRRHTVPDRHIPLALPRQNSTGQAQIRKVDQGGLGARAKAPPSLPHSASLRSTGSMSVVSAALVAEPVQNGSRSRQQSSSSRESPVPKVRAIQRQQTQQVQSPVDSATMSPVERTAAWVLNNGQYEEDVEETEQNLDEAKHAEKYEQEITKLKERLRVSSRRLEEYERRLLVQEQQMQKLLLEYKARLEDSEERLRRQQEEKDSQMKSIISRLMAVEEELKKDHAEMQAVIDAKQKIIDAQEKRIVSLDSANTRLMSALTQVKERYSMQVRNGISPTNPTKLSITENGEFKNSSC [RASAL2] | 0.0337 | 49 | 49.4 | -0.0989 | 1.04 | 2.25
MQVTLKTLQQQTFKIDIDPEETVKALKEKIESEKGKDAFPVAGQKLIYAGKILNDDTALKEYKIDEKNFVVVMVTKPKAVSTPAPATTQQSAPASTTAVTSSTTTTVAQAPTPVPALAPTSTPASITPASATASSEPAPASAAKQEKPAEKPAETPVATSPTATDSTSGDSSRSNLFEDATSALVTGQSYENMVTEIMSMGYEREQVIAALRASFNNPDRAVEYLLMGIPGDRESQAVVDPPQAASTGAPQSSAVAAAAATTTATTTTTSSGGHPLEFLRNQPQFQQMRQIIQQNPSLLPALLQQIGRENPQLLQQISQHQEHFIQMLNEPVQEAGGQGGGGGGGSGGIAEAGSGHMNYIQVTPQEKEAIERLKALGFPEGLVIQAYFACEKNENLAANFLLQQNFDED [RAD23B] | 0.0413 | 57 | 54.1 | 0.104 | -2.19 | -2.38
